The target of experiment [1] is T1, soluble rat FcRn (rat, UniProt P13599 23-298; P07151 21-119).
T1 construct: Soluble protein; whole entries named; also called sol rat FcRn
T1 sequence: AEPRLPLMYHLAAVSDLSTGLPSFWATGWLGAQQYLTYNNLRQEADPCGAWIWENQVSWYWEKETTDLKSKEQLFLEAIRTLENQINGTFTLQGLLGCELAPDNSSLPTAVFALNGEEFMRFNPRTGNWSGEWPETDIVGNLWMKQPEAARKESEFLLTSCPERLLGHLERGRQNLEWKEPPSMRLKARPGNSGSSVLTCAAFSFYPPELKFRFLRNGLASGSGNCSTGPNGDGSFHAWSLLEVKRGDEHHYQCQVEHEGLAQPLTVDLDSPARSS
T1 sequence (b2m): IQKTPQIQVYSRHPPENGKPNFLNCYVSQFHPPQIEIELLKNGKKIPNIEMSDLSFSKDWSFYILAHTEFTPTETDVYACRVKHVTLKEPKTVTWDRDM
Briefly: SPR 8500, rat FcRn pH 7.4.

In experiment [2] the target is T2, soluble human FcRn (extra-cellular domain of heavy chain and β2M) (human, UniProt P55899 24-297; P61769 21-119).
T2 construct: also called shFcRn; soluble hFcRn
T2 sequence (P55899 24-297 limits assumed, chain 1 of 2): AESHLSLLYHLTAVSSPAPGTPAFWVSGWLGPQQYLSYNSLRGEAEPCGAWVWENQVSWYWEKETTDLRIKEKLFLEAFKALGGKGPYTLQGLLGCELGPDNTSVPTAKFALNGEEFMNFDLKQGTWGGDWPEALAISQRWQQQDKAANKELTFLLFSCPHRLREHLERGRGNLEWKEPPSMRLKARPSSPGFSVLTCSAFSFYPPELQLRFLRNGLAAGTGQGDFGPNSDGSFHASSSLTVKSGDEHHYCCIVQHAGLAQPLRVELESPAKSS
T2 sequence (P61769 21-119 limits assumed, chain 2 of 2): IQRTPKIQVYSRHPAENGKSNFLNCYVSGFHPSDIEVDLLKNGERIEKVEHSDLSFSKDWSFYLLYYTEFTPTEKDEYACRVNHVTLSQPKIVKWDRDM
Briefly: SPR 8500, sol Fab, pH 6.

The target in experiment [3] is T1, soluble rat FcRn. Briefly: SPR 8500, sol Fab, pH 6.
Experiment [4] addresses T1, soluble rat FcRn. Briefly: SPR 8500, rat FcRn pH 7.4; rat FcRn pH 7.4.
Experiment [5] has as its target T3, rat FcRn / rat β2M expressed on cells (rat, UniProt P13599 23-366; P07151 21-119).
T3 construct: also called rat FcRn (cells); rat fibroblasts expressing rat FcRn
T3 sequence: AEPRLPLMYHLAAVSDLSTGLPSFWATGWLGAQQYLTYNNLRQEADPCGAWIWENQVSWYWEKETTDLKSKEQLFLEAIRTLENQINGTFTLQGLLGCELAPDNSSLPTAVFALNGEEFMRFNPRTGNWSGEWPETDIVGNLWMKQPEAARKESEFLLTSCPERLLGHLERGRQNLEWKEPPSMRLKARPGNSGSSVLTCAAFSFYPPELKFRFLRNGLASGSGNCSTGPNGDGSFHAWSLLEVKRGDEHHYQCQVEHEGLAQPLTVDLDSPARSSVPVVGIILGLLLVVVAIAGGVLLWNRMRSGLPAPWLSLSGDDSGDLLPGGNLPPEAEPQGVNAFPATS
T3 sequence (b2m): T1 sequence (b2m)
Briefly: FACS blocking of IgG-Fc, sol Fab, pH 6.

In experiment [6] the target is T4, human FcRn / human β2M expressed in 293 C11 cells (human, UniProt P55899 24-365; P61769 21-119).
T4 construct: HEK 293 cells engineered to overexpress FcRn; also called hFcRn (cells); hFcRn in THP-1 and Caco-2 cells
T4 sequence (P55899 24-365 limits assumed, chain 1 of 2): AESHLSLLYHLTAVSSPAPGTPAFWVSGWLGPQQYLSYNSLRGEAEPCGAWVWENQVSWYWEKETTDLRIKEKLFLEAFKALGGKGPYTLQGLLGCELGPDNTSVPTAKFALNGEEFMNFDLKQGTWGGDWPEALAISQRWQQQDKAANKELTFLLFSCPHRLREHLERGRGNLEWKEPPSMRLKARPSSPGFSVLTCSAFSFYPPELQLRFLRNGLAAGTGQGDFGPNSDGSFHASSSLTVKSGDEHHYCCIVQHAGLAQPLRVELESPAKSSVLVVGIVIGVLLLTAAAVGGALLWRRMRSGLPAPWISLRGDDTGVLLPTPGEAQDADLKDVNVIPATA
T4 sequence (P61769 21-119 limits assumed, chain 2 of 2): as the sequence (P61769 21-119 limits assumed, chain 2 of 2) above
Briefly: FACS blocking of IgG-Fc, sol Fab, pH 6.

The target in experiment [7] is T2, soluble human FcRn (extra-cellular …). Description: SPR 8500, sol Fab, pH 7.5.
For experiment [8], the target named is T1, soluble rat FcRn. Description: SPR 8500, sol Fab, pH 7.5.
Experiment [9] concerns the target T1, soluble rat FcRn. Description: SPR 8500, rat FcRn pH 6.
The target of experiment [10] is T2, soluble human FcRn (extra-cellular …). Briefly: SPR, sol Fab, pH 6.0.
The target is the same in experiment [11]. Briefly: SPR, sol Fab, pH 7.4. A general note: In SPR one partner is held on a chip, and binding of the other changes the refractive index at the surface.
Experiment [12] shares this target. Briefly: SPR 8500, hFcRn pH 6.
The target in experiment [13] is T1, soluble rat FcRn. Description: SPR 8500, rat FcRn pH 6. The source holds these as a separate data set.
In experiment [14] the target is T2, soluble human FcRn (extra-cellular …). Description: SPR 8500, hFcRn pH 7.4.
Experiment [15] shares this target. Briefly: SPR 8500, hFcRn pH 6. The source holds these as a separate data set.
For experiment [16] the target is unchanged. Briefly: SPR 8500, hFcRn pH 7.4. The source holds these as a separate data set.
The target is the same in experiment [17]. Description: Biacore, hFcRn on chip, IgG flowed, pH 6.
Experiment [18] shares this target. Description: Biacore, IgG on chip, hFcRn flowed, pH 6.
Experiment [19] has the same target. Briefly: Biacore, IgG on chip, hFcRn flowed, pH 7.4.
Experiment [20] addresses T4, human FcRn / human β2M expressed in 293 …. Briefly: FACS blocking, hFcRn cells, pH 6.
The target of experiment [21] is T2, soluble human FcRn (extra-cellular …). Briefly: Biacore, hFcRn on chip, IgG flowed, pH 7.4.
For experiment [22] the target is unchanged. Briefly: Biacore, IgG on chip, hFcRn flowed, pH 7.4. This is another data set of the same source.

Positions count from the first letter of the chain named.

B1: 532A-M0090-F11 soluble Fab (Fab)
VH: EVQLLESGGGLVQPGGSLRLSCAASGFTFSEYAMGWVRQAPGKGLEWVSSIGSSGGQTKYADSVKGRFTISRDNSKNTLYLQMNSLRAEDTAVYYCARLSTGELYWGQGTLVTVSS
light: QSVLTQPASVSGSPGQSITISCTGTGSDVGSYNLVSWYQKYPGKAPKLIIYGDSQRPSGLSSRFSGSKSGNSASLTISGLQAEDEADYYCCSYAGSGIYVFGSGTKVTVLSQPKANPTVTLFPPSSEELQANKATLVCLISDFYPGAVTVAWKADGSPVKAGVETTKPSKQSNNKYAASSYLSLTPEQWKSHRSYSCQVTHEGSTVEKTVAPAECS
notes: sFab from phage display; CH1 not set out for the Fab; also called M90-F11 (Fab); M090-F11
The term Kd denotes the free concentration of one partner at which half of the binding sites on the other are occupied at equilibrium, for simple one-to-one binding. Read a high Kd as a looser complex. What is called IC50 is the midpoint of a concentration-inhibition curve. A lower IC50 goes with inhibition by little substance. On to B1, for which the Kd stood at 3.29 nM with soluble rat FcRn [1]; 9.2 nM in experiment [2]; 31.2 nM in the experiment with soluble rat FcRn [3]; 9.96 nM with soluble rat FcRn [4]; 19.1 nM in [7]; 9.9 nM in the experiment with soluble rat FcRn [8]. The Kd with soluble rat FcRn [9] came out at 20.3 nM; in experiment [10], 12 nM; in experiment [11] it was 13 nM; in experiment [12], 6.11 nM; in the experiment with soluble rat FcRn [13], 31.2 nM; in experiment [14], 7.08 nM. The Kd in experiment [15] came to 9.2 nM; in [16], 19.1 nM. Besides, the half-inhibitory concentration (IC50) was 6480 nM in [5] and 13 nM in [6]. Further, the “Fold Kd Improvement Over Germlined M90-F11” value in experiment [11] was 2.3 fold.

B2: 532A-M0090-F11 (germlined LC changes) IgG (antibody)
heavy: EVQLLESGGGLVQPGGSLRLSCAASGFTFSEYAMGWVRQAPGKGLEWVSSIGSSGGQTKYADSVKGRFTISRDNSKNTLYLQMNSLRAEDTAVYYCARLSTGELYWGQGTLVTVSSASTKGPSVFPLAPSSKSTSGGTAALGCLVKDYFPEPVTVSWNSGALTSGVHTFPAVLQSSGLYSLSSVVTVPSSSLGTQTYICNVNHKPSNTKVDKKVEPKSCDKTHTCPPCAPELLGGPSVFLFPPKPKDTLMISRTPEVTCVVVDVSHEDPEVKFNWYVDGVEVHNAKTKPREEQYNSTYRVVSVLTVLHQDWLNGKEYKCKVSNKALPAPIEKTISKAKGQPREPQVYTLPPSPREPQVYTLPPSRDELTKNQVSLTCLVKGFYPSDIAVEWESNGQPENNYKTTPPVLDSDGSFFLYSKLTVDKSRWQQGNVFSCSVMHEALHNHYTQKSLSLSPGK
light: B1 light with V3A, K40Q, Y41H, I49M, L60V, S62N, S72T, S103T, S111G, A213T
notes: also called Germlined M90-F11 (GL)
What is called koff is the first-order rate constant of dissociation. Read a high koff as a short-lived complex. For orientation: kon means the rate constant with which the complex forms. Read a low kon as slower complex formation. B2: the Kd in [17] stood at 0.172 nM; in experiment [18], 29.9 nM; in experiment [19] it was 35.2 nM; in experiment [21], 0.779 nM. Besides, the koff in [17] was found to be 0.000764 s⁻¹; in experiment [18], 0.0172 s⁻¹; in [19], 0.0152 s⁻¹; in experiment [21], 0.000776 s⁻¹. Also, the kon was determined as 4.45e+06 M⁻¹ s⁻¹ in experiment [17], 574000 M⁻¹ s⁻¹ in experiment [18], 433000 M⁻¹ s⁻¹ in experiment [19] and 996000 M⁻¹ s⁻¹ in experiment [21]. This molecule also registered a 50% inhibitory concentration (IC50) in [20] of 0.38 nM.

B3: DX-2500 (germlined LC & allotype HC changes) (antibody)
heavy: B2 heavy with K213R, D366E, L368M
light: B1 light with V3A, K40Q, Y41H, I49M, L60V, S62N, S72T, S103T, S111G, A213T
notes: IgG, F allotype; 13 amino acid changes against parent M90-F11
As for B3, in experiment [22], the “K off Fold improvement over DX2500” value was determined as 1 fold, the “K off Fold improvement over M90-F11” value is 0.15 fold, the “KD Fold improvement over DX2500” value turned out to be 1 fold and the “KD Fold improvement over M90-F11” value amounted to 0.21 fold. In addition, in experiment [22], the Kd amounted to 87.9 nM, the off-rate constant (koff) came to 0.0197 s⁻¹ and the kon was 224000 M⁻¹ s⁻¹. In addition, in experiment [17], the Kd was found to be 0.16 nM, the koff turned out to be 0.000336 s⁻¹ and the kon was 2.11e+06 M⁻¹ s⁻¹. In experiment [18], this molecule returned an equilibrium dissociation constant (Kd) of 27.6 nM, a koff of 0.0177 s⁻¹ and a kon of 642000 M⁻¹ s⁻¹. The molecule further returned a 50% inhibitory concentration (IC50) in experiment [20] of 0.65 nM. Moreover, in experiment [21], the affinity, expressed as Kd, was 0.268 nM; the dissociation rate constant (koff) was 0.000338 s⁻¹; the kon stood at 1.26e+06 M⁻¹ s⁻¹.
